Laboratory results published in publication PMC7567314 (Science (New York, N.Y.), 2020).

Columns and labels:
[1] = molecular target: wild-type MC4R stably expressed in HEK293 cells (Homo sapiens, UniProt P32245); format: binding; conditions: 10 μM Ca2+; wild-type receptor; against 80 pM 125I-NDP-MSH
[2] = test system: untransfected HEK293 cells (adenylyl cyclase); assay: Forskolin cAMP concentration-response with or without Ca2+; format: cell-based, human; conditions: 0.5 mM CaCl2

Sequence of wild-type MC4R stably expressed in HEK293 cells (P32245 whole entry): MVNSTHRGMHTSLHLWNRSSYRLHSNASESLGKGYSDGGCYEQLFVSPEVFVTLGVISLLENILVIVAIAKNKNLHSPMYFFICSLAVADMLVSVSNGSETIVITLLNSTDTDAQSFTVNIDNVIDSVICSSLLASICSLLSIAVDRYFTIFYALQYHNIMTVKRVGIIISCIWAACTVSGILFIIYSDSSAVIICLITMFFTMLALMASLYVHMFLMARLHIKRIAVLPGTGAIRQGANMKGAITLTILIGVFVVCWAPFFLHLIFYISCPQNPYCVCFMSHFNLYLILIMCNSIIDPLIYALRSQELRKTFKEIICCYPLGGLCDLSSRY

Row | Compound | effect of Ca2+ on Ki [1] | Ca2+ dependence of non-receptor-mediated activation of adenylyl cyclase [2]
1 | agouti-related protein (SSRRCVRLHESCLGQQVPCCDPCATCYCRFFNAFCYCRKLGTAMNPCSRT; UniProt O00253 83-132, looked up, fragment) [AgRP] | only marginally lowered | 
2 | C=C[C@@]1(C)CC(=O)[C@]2(O)[C@@]3(C)[C@@H](O)CCC(C)(C)[C@@H]3[C@H](O)[C@H](OC(C)=O)[C@@]2(C)O1 [forskolin] |  | no Ca^2+ dependence
